In experiment [1] the target is T1, endogenous IRF3 of HEK293T cells (human (endogenous in HEK293T)), Q14653.
T1 chain: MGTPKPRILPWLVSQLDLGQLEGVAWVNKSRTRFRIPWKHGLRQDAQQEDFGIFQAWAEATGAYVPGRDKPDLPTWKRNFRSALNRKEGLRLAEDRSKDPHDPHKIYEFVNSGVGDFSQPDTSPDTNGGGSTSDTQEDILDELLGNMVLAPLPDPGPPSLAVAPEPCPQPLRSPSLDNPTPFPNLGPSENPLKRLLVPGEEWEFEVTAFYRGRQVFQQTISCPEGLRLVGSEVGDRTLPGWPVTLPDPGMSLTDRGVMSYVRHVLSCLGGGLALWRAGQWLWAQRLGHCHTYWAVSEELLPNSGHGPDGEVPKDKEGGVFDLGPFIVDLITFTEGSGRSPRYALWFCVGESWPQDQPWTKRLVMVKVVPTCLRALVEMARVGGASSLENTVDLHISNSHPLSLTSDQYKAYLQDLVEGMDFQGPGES
Briefly: native gel or EMSA; native PAGE (deoxycholate in the cathode buffer, on ice) of HEK293T lysates, Western blot; cells stimulated with poly(I·C) 10 μg/ml for 12 h, with or without Flag-FAF1. To be noted: remark: other sources report otherwise. Background: Mobility shift assays separate free from complexed probe on a gel.

For experiment [2], the target named is T2, GFP-tagged wild-type IRF3 (IRF3-WT-GFP), in HEK293T cells, Q14653.
T2 chain: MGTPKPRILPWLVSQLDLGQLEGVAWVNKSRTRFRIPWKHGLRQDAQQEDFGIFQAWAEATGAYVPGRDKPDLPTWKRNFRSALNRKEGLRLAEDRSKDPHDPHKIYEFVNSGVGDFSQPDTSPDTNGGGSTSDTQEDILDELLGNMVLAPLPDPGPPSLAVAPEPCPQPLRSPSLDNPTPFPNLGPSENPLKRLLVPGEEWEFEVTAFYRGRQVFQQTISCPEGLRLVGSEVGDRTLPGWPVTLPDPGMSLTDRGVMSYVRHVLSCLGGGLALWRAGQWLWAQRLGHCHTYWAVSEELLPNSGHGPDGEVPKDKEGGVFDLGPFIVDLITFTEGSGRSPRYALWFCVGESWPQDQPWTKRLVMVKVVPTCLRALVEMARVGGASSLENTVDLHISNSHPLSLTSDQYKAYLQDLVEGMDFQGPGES
The experiment is described as above. To be noted: remark: other sources report otherwise.

B1: endogenous IRF3 of HEK293T cells, Q14653 1-427 (natural protein)
chain: MGTPKPRILPWLVSQLDLGQLEGVAWVNKSRTRFRIPWKHGLRQDAQQEDFGIFQAWAEATGAYVPGRDKPDLPTWKRNFRSALNRKEGLRLAEDRSKDPHDPHKIYEFVNSGVGDFSQPDTSPDTNGGGSTSDTQEDILDELLGNMVLAPLPDPGPPSLAVAPEPCPQPLRSPSLDNPTPFPNLGPSENPLKRLLVPGEEWEFEVTAFYRGRQVFQQTISCPEGLRLVGSEVGDRTLPGWPVTLPDPGMSLTDRGVMSYVRHVLSCLGGGLALWRAGQWLWAQRLGHCHTYWAVSEELLPNSGHGPDGEVPKDKEGGVFDLGPFIVDLITFTEGSGRSPRYALWFCVGESWPQDQPWTKRLVMVKVVPTCLRALVEMARVGGASSLENTVDLHISNSHPLSLTSDQYKAYLQDLVEGMDFQGPGES
The stoichiometry N is a count of units in the complex or per binding partner. For the molecule B1, the stoichiometry N in experiment [1] was 2.

B2: GFP-tagged wild-type IRF3 (IRF3-WT-GFP), in HEK293T cells, Q14653 1-427 (natural protein)
chain: MGTPKPRILPWLVSQLDLGQLEGVAWVNKSRTRFRIPWKHGLRQDAQQEDFGIFQAWAEATGAYVPGRDKPDLPTWKRNFRSALNRKEGLRLAEDRSKDPHDPHKIYEFVNSGVGDFSQPDTSPDTNGGGSTSDTQEDILDELLGNMVLAPLPDPGPPSLAVAPEPCPQPLRSPSLDNPTPFPNLGPSENPLKRLLVPGEEWEFEVTAFYRGRQVFQQTISCPEGLRLVGSEVGDRTLPGWPVTLPDPGMSLTDRGVMSYVRHVLSCLGGGLALWRAGQWLWAQRLGHCHTYWAVSEELLPNSGHGPDGEVPKDKEGGVFDLGPFIVDLITFTEGSGRSPRYALWFCVGESWPQDQPWTKRLVMVKVVPTCLRALVEMARVGGASSLENTVDLHISNSHPLSLTSDQYKAYLQDLVEGMDFQGPGES
In the case of B2, the stoichiometry N in experiment [2] worked out at 2.
